Our source for the Maximum response and Maximum response in RGA assay (LU) values is patent publication US20250011428A1.

B1: CD3_2 (antibody, human IgG1, lambda)
heavy: EVQLVESGGGLVQPGGSLKLSCAASGFTFNTYAMNWVRQASGKGLEWVGRIRSKYNNYATYYADSVKDRFTISRDDSKSTLYLQMNSLKTEDTAVYYCVRHGNFGNSYVSWFAYWGQGTLVTVSSASTKGPSVFPLAPSSKSTSGGTAALGCLVKDYFPEPVTVSWNSGALTSGVHTFPAVLQSSGLYSLSSVVTVPSSSLGTQTYICNVNHKPSNTKVDKRVEPKSCDKTHTCPPCPAPELCCHPSVFLFPPKPKDTLMISRTPEVTCVVVGLRHEDPEVKFNWYVDGVEVHNAKTKPREEQYCGCYRVVSVLTVLHQDWLNGKEYKCKVSNKALPAPIEKTISKAKGQPREPQVYTLPPSRDELTKNQVSLTCLVKGFYPSDIAVEWESNGQPENNYKTTPPVLDSDGSFFLYSKLTVDKSRWQQGNVFSCSVMHEALHNHYTQKSLSLSPGK
light: QAVVTQEPSLTVSPGGTVTLTCRSSTGAVTTSNYANWVQQKPGQAPRGLIGGTNKRAPWTPARFSGSLLGDKAALTLSGAQPEDEAEYFCALWYSNLWVFGGGTKLTVLGQPKAAPSVTLFPPSSEELQANKATLVCLISDFYPGAVTVAWKADSSPVKAGVETTTPSKQSNNKYAASSYLSLTPEQWKSHRSYSCQVTHEGSTVEKTVAPTECS
B2: CD3_3 (antibody, human IgG1, lambda)
heavy: B1 heavy with V272T, H276D
light: B1 light
B3: CD3_4 (antibody, human IgG1, lambda)
heavy: B1 heavy with G273D, L274V, R275S
light: B1 light
B4: CD3_3_YTE (antibody, human IgG1, lambda)
heavy: B1 heavy with M260Y, S262T, T264E, V272T, H276D
light: B1 light
B5: IgG4_CD3_8 (antibody)
heavy: EVQLVESGGGLVQPGGSLKLSCAASGFTFNTYAMNWVRQASGKGLEWVGRIRSKYNNYATYYADSVKDRFTISRDDSKSTLYLQMNSLKTEDTAVYYCVRHGNFGNSYVSWFAYWGQGTLVTVSSASTKGPSVFPLAPCSRSTSESTAALGCLVKDYFPEPVTVSWNSGALTSGVHTFPAVLQSSGLYSLSSVVTVPSSSLGTKTYTCNVDHKPSNTKVDKRVESKYGPPCPSCPAPEFLCGPSVFLFPPKPKDTLMISRTPEVTCVVVDVSQEDPEVQFNWYVDGVEVHNAKTKPREEQFNSTYRVVSVLTVLHQDWLNGKEYKCKVSNKGLPSSIEKTISKAKGQPREPQVYTLPPSQEEMTKNQVSLTCLVKGFYPSDIAVEWESNGQPENNYKTTPPVLDSDGSFFLYSRLTVDKSRWQEGNVFSCSVMHEALHNHYTQKSLSLSL
light: B1 light
B6: CD3_4_YTE (antibody, human IgG1, lambda)
heavy: B1 heavy with M260Y, S262T, T264E, G273D, L274V, R275S
light: B1 light
B7: IgG4_CD3_8_YTE (antibody)
heavy: B5 heavy with M257Y, S259T, T261E
light: B1 light
B8: IgG4_CD3_9_YTE (antibody)
heavy: B5 heavy with L240C, C241G, M257Y, S259T, T261E
light: B1 light
B9: IgG4_CD3_S228P_YTE (antibody)
heavy: B5 heavy with S233P, C241G, M257Y, S259T, T261E
light: B1 light
B10: IgG4_CD3_6 (antibody)
heavy: B5 heavy with L240C
light: B1 light
B11: CD3_2_YTE (antibody, human IgG1, lambda)
heavy: B1 heavy with M260Y, S262T, T264E
light: B1 light
B12: CD3_1 (antibody, human IgG1, lambda)
heavy: B1 heavy with S247R, V272T, H276D, R309S
light: B1 light
B13: CD3_DANAPA_YTE (antibody, human IgG1, lambda, N297A)
heavy: EVQLVESGGGLVQPGGSLKLSCAASGFTFNTYAMNWVRQASGKGLEWVGRIRSKYNNYATYYADSVKDRFTISRDDSKSTLYLQMNSLKTEDTAVYYCVRHGNFGNSYVSWFAYWGQGTLVTVSSASTKGPSVFPLAPSSKSTSGGTAALGCLVKDYFPEPVTVSWNSGALTSGVHTFPAVLQSSGLYSLSSVVTVPSSSLGTQTYICNVNHKPSNTKVDKRVEPKSCDKTHTCPPCPAPELLGGPSVFLFPPKPKDTLYITREPEVTCVVVAVSHEDPEVKFNWYVDGVEVHNAKTKPREEQYASTYRVVSVLTVLHQDWLNGKEYKCKVSNKALAAPIEKTISKAKGQPREPQVYTLPPSRDELTKNQVSLTCLVKGFYPSDIAVEWESNGQPENNYKTTPPVLDSDGSFFLYSKLTVDKSRWQQGNVFSCSVMHEALHNHYTQKSLSLSPGK
light: B1 light
B14: CD3_5 (antibody, human IgG1, lambda)
heavy: B1 heavy with H245G, G273D, L274V, R275S, G306S
light: B1 light
B15: CD3_5_YTE (antibody, human IgG1, lambda)
heavy: B13 heavy with L243C, G244C, A273D, A305C, T307C, A337P
light: B1 light
B16: CD3_1_YTE (antibody, human IgG1, lambda)
heavy: B1 heavy with S247R, M260Y, S262T, T264E, V272T, H276D, R309S
light: B1 light
B17: IgG4_CD3_6_YTE (antibody)
heavy: B5 heavy with L240C, M257Y, S259T, T261E
light: B1 light
B18: IgG4_CD3_WT_YTE (antibody)
heavy: B5 heavy with C241G, M257Y, S259T, T261E
light: B1 light

Residue numbers refer to the chain shown, from its start.

The target in one assay is hC1q (human) (UniProt P02745). The assay is described as follows: SPR Biacore T200; IgG amine-coupled on CM5, hC1q as analyte; response normalized to parental (=100). Background: Surface plasmon resonance follows binding to a sensor surface in real time, without labels.
hC1q (human), sequence (P02745 23-245 limits assumed, chain 1 of 3): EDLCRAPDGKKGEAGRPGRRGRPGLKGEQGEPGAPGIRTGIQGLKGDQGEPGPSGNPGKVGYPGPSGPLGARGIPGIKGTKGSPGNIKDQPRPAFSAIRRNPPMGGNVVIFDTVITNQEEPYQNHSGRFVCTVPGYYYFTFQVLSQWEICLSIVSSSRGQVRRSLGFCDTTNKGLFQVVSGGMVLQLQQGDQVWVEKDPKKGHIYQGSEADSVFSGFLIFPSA
hC1q (human), sequence (P02746 28-253 limits assumed, chain 2 of 3, further chain): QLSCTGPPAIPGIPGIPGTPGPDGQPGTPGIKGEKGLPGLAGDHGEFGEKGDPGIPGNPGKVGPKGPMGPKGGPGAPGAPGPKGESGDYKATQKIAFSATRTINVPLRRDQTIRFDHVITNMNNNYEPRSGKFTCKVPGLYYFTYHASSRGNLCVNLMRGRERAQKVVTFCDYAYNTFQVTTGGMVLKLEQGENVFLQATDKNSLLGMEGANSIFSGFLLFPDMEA
hC1q (human), sequence (P02747 29-245 limits assumed, chain 3 of 3, further chain): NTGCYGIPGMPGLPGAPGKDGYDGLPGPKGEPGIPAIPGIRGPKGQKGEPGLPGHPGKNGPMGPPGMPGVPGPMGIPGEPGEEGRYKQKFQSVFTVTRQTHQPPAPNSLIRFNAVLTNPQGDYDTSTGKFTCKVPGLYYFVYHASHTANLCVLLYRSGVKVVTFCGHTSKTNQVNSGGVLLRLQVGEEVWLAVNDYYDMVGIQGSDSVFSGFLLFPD
With B1, the Maximum response at 20 nM hC1q (RU) was 7 RU.
On the same count and under the same terms, with B2 the figure was 7 RU.
Still for that read-out and setting: with B3 the figure was 9 RU.

In a further assay the target is Gamma receptors FcγRI, FcγRII, and FcγRIII expressed on THP-1 cells. Nature of the assay: cell-based or functional assay.
For B1, the Maximum response in RGA assay (LU) is 25500 LU.
As to B4, the Maximum response in RGA assay (LU) came to 13100 LU.
Still for that read-out and setting: the figure for B2 is 23200 LU.
The same measure, in the same setting: with B5 the figure was 7040 LU; with B6, 16500 LU; with B7, 6450 LU.
Molecule B8 came in with a Maximum response in RGA assay (LU) of 5610 LU.
Still for that read-out and setting: the figure for B9 is 34900 LU; for B10 it is 12000 LU; for B3 it is 24900 LU.
On the same count and under the same terms, the figure for B11 is 11900 LU; for B12 it is 24700 LU; for B13 it is 12300 LU.
The same measure, in the same setting: with B14 the figure was 19900 LU; with B15, 13100 LU.
B16: the Maximum response in RGA assay (LU) is 12000 LU.
In the case of B17, the Maximum response in RGA assay (LU) was found to be 7910 LU.
On the same count and under the same terms, the figure for B18 is 31800 LU.
